Measurements as given in the supplement of paper PMC12636428.

Tested on: Saccharomyces cerevisiae
Assay: transcriptional activation domain activity (GFP:mCherry ratio, weighted mean of sorted bins, harmonized to initial dataset scale) (arbitrary fluorescence ratio units); higher = stronger transcriptional activation
Settings: beta-estradiol 1 µM; induction time 4 h
Procedure, shortened: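 The listed activation activity is a read-weighted mean of bin median fluorescence, averaged across barcodes and linearly mapped onto the initial dataset scale. Barcoded tiles, fused to an estradiol-inducible synthetic transcription factor, were integrated at URA3 in yeast diploids bearing a GFP reporter. Cells were held 4 hours at 30 °C in SC with 1 uM beta-estradiol, sorted into 8 GFP:mCherry bins, and sequenced, and tiles with fewer than 50 reads were excluded.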

Sequence: SESDTDSEEEEIEEDEGAAETRPGIRLQREEKAVETGEITNRLAIVNIDWDHL
- transcriptional activation domain activity: 32000

Sequence: DNPEQLMKVFLSRNLISTGVIYSEHKCNMMVRLVWLFLCFLHRKSVLPEIRGL
- transcriptional activation domain activity: 59500

Sequence: LQRNILWGMLIFVLAQGLSSTIVVAGFLCTPLSQVWTTPTAIGGPTCINILTF
- transcriptional activation domain activity: 61900

Sequence: MITYIILLLFFLLYYSIILFTSFSFSFFITFILHTITTLPVFILSCCSTFFFF
- transcriptional activation domain activity: 66600

Sequence: NSGDEGDAGAAEVEAPKSKKKRGRAAKEEDDDEETPAPVPKKARGRAKKATKE
- transcriptional activation domain activity: 23700

Sequence: LFTFRLLRICGPFVARLPSAERLLGWSTLASILGLWWNPRFAQVFRGFTRHIS
- transcriptional activation domain activity: 61800

Sequence: KDHIGMKCVVAIVCLLDTMHQIFITHALYIYLIKGFANPLILTRLLWTFLIQL
- transcriptional activation domain activity: 56400

Sequence: NTLDVSEGNQVINESASTNTSSALNCQSYTNNQDIMDILFQVTSGSVWDEFFV
- transcriptional activation domain activity: 149000

Sequence: MNPTPAVFALFFPVIFCVYICYAWFLLFFVFWEPFFFLHIFLYRIILLSIWNL
- transcriptional activation domain activity: 29900

Sequence: LWPLPVITRYIIGISLLVSMLNFMGLLHLKCSSPSYVIHRLEIANLLMSPFLF
- transcriptional activation domain activity: 46200

Sequence: RDRGGERDSKPRKTSGSSSNSQHADRGDTRSQKSSRRRRSSRSEHGGETSQHH
- transcriptional activation domain activity: < 6570

Sequence: MHPFSPHCLSLSLLLKFSQLFNISFFLLVMHFLWLDILGFFFILFPNHFPMFG
- transcriptional activation domain activity: 43800

Sequence: FSLAGSNYLGICWNPAVKNCIPYDTYLLWIRCMPFWYLFVFLYDIIPPILIVY
- transcriptional activation domain activity: 59800

Sequence: ESEVAASENGKGKKEEEEKKRKKGLASTRQRNAAGKQSSSSKEEGKGARAYRS
- transcriptional activation domain activity: 26100

Sequence: RASEASVGTEGATDIPGDEKKKKRAPRKKPGEEENEAGRGKGRKRKGTNESSA
- transcriptional activation domain activity: 36200

Sequence: EVNYLYGLILLQFYTGFIHDIIFGSGHLPFLPLMITSIYCSLGVVYGWGYFML
- transcriptional activation domain activity: 51000

Sequence: LQKDKFKVELQLLDIRVSDKLLMGIEKAIREFLTQKFVICRRVFVPWVPKVLF
- transcriptional activation domain activity: 61500

Sequence: FLQNSSDSVDIRLALLLTPLENTKGVSHVDQLNKPTHTVVVGIVHLCNPKSRA
- transcriptional activation domain activity: 51600

Sequence: MHSPHNCRVSKHFVIFCFFFFFFLFCRPLPLLSNLILTLFFSSFFLLGLFGVL
- transcriptional activation domain activity: 64700

Sequence: MDFNQLLAIFYDCIFPFREFYRWLYYGGVVQKNYFLHRELSFTLSNDAYLRFK
- transcriptional activation domain activity: 41100

Sequence: MLRITLRVSIFLGYFPLFGWCAGFCFFRPFFFFFFACFRARWAFFFPSIRFFY
- transcriptional activation domain activity: 37300

Sequence: KGAKDEKKEDAKGGEEGKDATKQREKEESKGGKLESTPSKEFSDGKEQQEKKG
- transcriptional activation domain activity: 40400

Sequence: FSSINANPFDLDEQLAIELSAFADDSFIFPDEDKPSNNNNNSNNGNDDHSNHD
- transcriptional activation domain activity: 80300

Sequence: MSLFLHSIIGGWLLHLFSLLCFLLFCFSAFCFSTTLFVTRRSGFVVGLWSLCL
- transcriptional activation domain activity: 52000

Sequence: AKGEAEPKAKAKGKGKAKAQAESEGEEEEEEEEEEEVKGKGKSRAKSKPKAKA
- transcriptional activation domain activity: 53900

Sequence: LAKARCGCCFQIGSLVELIKLCLLIMLLVVIYFVTVQALIAVLVSSKLCILVP
- transcriptional activation domain activity: 43800

Sequence: EMVDIFAHMDNIERLIAPFSVLAEHEVFHFNMLRIYYLTLRLLVLLHGVIEVK
- transcriptional activation domain activity: 75200

Sequence: NLMLQVVSPRIWFPSMQLIWGVLTFWWVAMPCRRIFITHILDHGIQIYAIRFF
- transcriptional activation domain activity: 61400

Sequence: FVCVASAIGGVGYLLLLTVAENVHVRYFATFCIVSGTYTTIGIVIAWFAHNLG
- transcriptional activation domain activity: 48700

Sequence: SGDPDEDGNGHGTHCSGTVAGKKYGVAKKANVYAVKVLRSNGSGSMSDVVKGV
- transcriptional activation domain activity: 19600

Sequence: SLRLLLTVLAGYPIAIVYRLIFLNKTSTIIGASARNWFCLVAGLSLSYYFNSF
- transcriptional activation domain activity: 70800

Sequence: KAAPAQDGAAAGERNGAEAAEAGEEEEEAEGEAAAEPGAEAAEKPAPKPAAAA
- transcriptional activation domain activity: 42100

Sequence: PAEGAEDAGEVKKKHRKRRRKRRGDAKDAAAEGGDEPENEDGEVGEGDNAAVS
- transcriptional activation domain activity: 9150

Sequence: TGDDDAAKTTPKKRGDADGTPKTAKSTPRKRKTKAEGDGECSPKKRGRKTKVV
- transcriptional activation domain activity: 36500

Sequence: EAPAAEPVKETETAAEAAPAEAPAEAAAEETKEEKKEEKKEEKVKASKVGRRL
- transcriptional activation domain activity: 44900

Sequence: TIGFVGFVMSLQKGYLKQQFGLFCWVHMSLLIIVLSSHFIVNNILEGLIWFWV
- transcriptional activation domain activity: 58700

Sequence: RLLRLLLRLLRLLLLRLLLLLLLLLLLLLLLRLLLRLLVTLILFLNIQRVLIL
- transcriptional activation domain activity: 16300

Sequence: PINALCIILSDDSIKALLQEEFPLKQYRDICNKLDVYLSRRRILGILLYMYPT
- transcriptional activation domain activity: 72700

Sequence: MASSTPRVRSLYRRLLRELPTHPSATPNTTTAASRTTPSKYRSTAHQKLSAPS
- transcriptional activation domain activity: 31700

Sequence: FRFQQCMTRAMTLIKMYFVGSLRALSLDVFKRLSEKDVSPTAQMHLLYTRFKT
- transcriptional activation domain activity: 56200

Sequence: GYVYVSGFLALVIVVSTYFYMLSRLVLLVLPFLYLRSLSPAAYHVVHWTSFIP
- transcriptional activation domain activity: 61000

Sequence: PGLILVYSHLNLLLRNHADLEMIYIIGPGHGAPAALAALWLEGSLERFYPGEY
- transcriptional activation domain activity: 31000

Sequence: KPLSKRAAPKKAPAKRKSSAGSKSKETSAEPPKKRPAKAKAKPKKEATPASSP
- transcriptional activation domain activity: 41900

Sequence: TPGGSSGGTGAAVASSFSVFGTGTDTVNSLRSPASANSLFSCRPTRGLITRNG
- transcriptional activation domain activity: 58000

Sequence: MVEGCLLHFQFSFPPFFFCFFFGHLGGFVNFCDSLIFKVLRALGLVMNVFTII
- transcriptional activation domain activity: 70500

Sequence: NSTIHNLLEVVLLPDLCGFCCFSMRFVVLLDLIGTLTLPVTCLYLIYLIYVIA
- transcriptional activation domain activity: 52100

Sequence: RDALSGDPTAPRKRSKVSRACDECRRKKIRCDASSESGIEQCSSCKRVGSKCS
- transcriptional activation domain activity: 43500

Sequence: RVLETPAIFPSFLNTALFPMPFIVGLILFFFFALFPFPLPFLSPSFFPSILQY
- transcriptional activation domain activity: 43200

Sequence: IWIIQCCVLPLCLHFGSIFPGLQYTLLAFLPYYCCFSHYFPVLIPVLILICFI
- transcriptional activation domain activity: 63700

Sequence: AAKDRRHLRSRSQATYLILLGIMLWGLLRWRKTNVFKLWHLLVRQGACWILIV
- transcriptional activation domain activity: 60400

Sequence: KTGEDRGRGRGRGRGKRKGEGRGGEGKTGEEGEEEEEEKGERREREREREKKK
- transcriptional activation domain activity: 23400

Sequence: MLLSMLYNSVGYQYLEDHCPQGGEYSDLLRNLINECEAILPSYEIIERYKNHF
- transcriptional activation domain activity: 39500

Sequence: EDGDVDMGEADDKPAEPEAEIKTEEVETAAAPEPETEPKSTPAVPAAAAAAAA
- transcriptional activation domain activity: 24500

Sequence: FELHIPYHFVVVNTGKKLFQIWGLGKIDFARDFPFLQGARGSLTRTIIVILRN
- transcriptional activation domain activity: 52300

Sequence: YSHLFNLHTVVFDNYLLYHNAFLLFPLVFCVLPICAIFCFCGMLCNLNRLSGR
- transcriptional activation domain activity: 66600
